Bridge positions count the residues as written; N and C are the ends. Ends that are not written are not given here.
Tests used:
[1] = target: T1, IGF-1 (human, UniProt P05019 49-118); experiment: monovalent phage ELISA; soluble IGF-1 titrated against peptide-phage binding to immobilised IGF-1
[2] = target: T2, phage displaying human IGF-1 (phage vector pIGF-g3) (human, UniProt P05019 49-118); experiment: competition phage ELISA: peptide against IGF-1 phage binding to IGFBP-3 on plate
T2 construct: Construct as in Dubaquie and Lowman; also called IGF-1 displaying phage; Phage IGF-1; not shown: g3 of the phage vector pIGF-g3 (M13 gene III protein)
Description: (§1) The IGF-1 displaying phage was titered against IGF bp1 and bp3 for a 500-1000× dilution for preincubation with serial dilutions the synthesized peptides and binding protein standards for 45 minutes. Immunosorbant plates were coated with IGF binding proteins and blocked with 0.5% TWEEN®-20 detergent and PBS and washed as above. The samples were added to the plates for 20 minutes, washed and detected as above. The experimental IC50 values are in Table 5.

[3] = target: T1, IGF-1; experiment: cell-based or functional assay
[4] = target: T1, IGF-1; experiment: displacement of 125I-IGF-1 (2 nM) from receptors on MCF-7 cells
Description: Cell were passaged weekly in media containing a 50/50 mix of high-glucose DMEM/ Ham's F12, with 10% fet al bovine serum and 10 mM HEPES pH 7.2. Cells were plated and grown overnight maintained at 37° C. and 5% CO₂. For IGF-1 iodination, 50 μg of IGF-1 was diluted into 200 μL of PBS and added to a tube coated with 100 μg of IODOGEN® 1,3,4,6-tetrachloro-3a-6β-diphenylglycouril) (Pierce Chemical Co.), incubated with 1 mCi of ¹²²⁵-Nal (10 μL) at room temperature for 10-15 minutes. Synthesized peptides and binding protein controls were preincubated with 2 nm ¹²⁵I IGF-1 for 40 minutes at 37° C. The samples were added to cells for 30 minutes. The cells were washed with media and lysed with 1N NaOH.

[5] = target: T2, phage displaying human IGF-1 (phage …); experiment: competition phage ELISA: peptide against IGF-1 phage binding to IGFBP-1 on plate
Description: as §1

T2 sequence (P05019 49-118 limits assumed): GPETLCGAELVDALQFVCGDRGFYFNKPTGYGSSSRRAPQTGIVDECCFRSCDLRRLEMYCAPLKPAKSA
T1 sequence (P05019 49-118): as the sequence (P05019 49-118 limits assumed) above

Row | IC50 [1] [µM] | IC50 [2] [µM] | IGF-1 KIRA [3] [µM] | Insulin KIRA [3] [µM] | IC50 [4] [µM] | IC50 [5] [µM] | Molecule
1 | 209 | – | – | – | – | – | … (from UniProt P01241 27-217) (peptide)
2 | – | 2.93 | 84.9 | 5.48 | 5.12 | 1.4 | RNCFESVAALRRCMYG (disulfide 3-13, synthetic peptide; also called IGF-F1-1) [F1-1]
3 | – | 9.2 | 20 | 32.6 | 15.3 | 15.5 | MDCLASVEALKWCMYG (synthetic peptide) [F1-2]
4 | – | 12.8 | 102 | 66.1 | 45.7 | 11.7 | FECLTSVEALRGCMYG (synthetic peptide) [F1-3]

From patent US20030092631A1 (Genentech, published 2003)
